Test results reported in IntAct's records for PubMed 29176668.

Molecular target: ATP2A2, P16615-1
Sequence (P16615 whole entry): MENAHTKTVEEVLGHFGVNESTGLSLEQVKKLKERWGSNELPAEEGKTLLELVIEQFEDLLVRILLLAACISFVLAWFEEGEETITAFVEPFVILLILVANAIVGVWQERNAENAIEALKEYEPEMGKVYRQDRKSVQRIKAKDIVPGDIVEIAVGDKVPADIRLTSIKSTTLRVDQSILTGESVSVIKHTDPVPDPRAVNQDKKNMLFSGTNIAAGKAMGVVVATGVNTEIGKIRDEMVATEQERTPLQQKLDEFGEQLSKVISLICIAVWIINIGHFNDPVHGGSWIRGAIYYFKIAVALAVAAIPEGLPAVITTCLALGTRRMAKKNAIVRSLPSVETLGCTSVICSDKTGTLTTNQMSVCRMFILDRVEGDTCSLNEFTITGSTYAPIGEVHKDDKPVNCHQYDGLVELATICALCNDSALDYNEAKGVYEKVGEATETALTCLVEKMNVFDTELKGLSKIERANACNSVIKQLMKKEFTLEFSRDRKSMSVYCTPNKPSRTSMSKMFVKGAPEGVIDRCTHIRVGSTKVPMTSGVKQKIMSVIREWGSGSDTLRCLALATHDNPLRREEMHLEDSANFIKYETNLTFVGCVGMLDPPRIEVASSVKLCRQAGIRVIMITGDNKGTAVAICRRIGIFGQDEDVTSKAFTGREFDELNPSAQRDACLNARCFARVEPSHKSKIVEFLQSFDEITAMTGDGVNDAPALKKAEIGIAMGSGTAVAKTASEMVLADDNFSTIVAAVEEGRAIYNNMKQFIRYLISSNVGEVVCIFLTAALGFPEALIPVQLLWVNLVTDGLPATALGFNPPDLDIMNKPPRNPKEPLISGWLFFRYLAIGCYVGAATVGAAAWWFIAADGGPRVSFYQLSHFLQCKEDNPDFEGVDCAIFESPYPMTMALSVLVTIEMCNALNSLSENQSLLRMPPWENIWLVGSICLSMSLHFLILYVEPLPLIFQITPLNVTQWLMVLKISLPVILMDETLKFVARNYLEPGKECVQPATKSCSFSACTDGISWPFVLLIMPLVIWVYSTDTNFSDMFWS

effect of a mutation on the interaction | Substance
decreasing interaction strength | Piezo-type mechanosensitive ion channel component 1 (Mus musculus), E2JF22 E2172A;K2173A;K2174A;Y2175A;P2176A;Q2177A;P2178A;K2179A;G2180A;Q2181A
decreasing interaction strength | Piezo-type mechanosensitive ion channel component 1 (Mus musculus), E2JF22 K2182A;K2183A;K2184A;K2185A
